From patent US12303551B2, “Cellular immunotherapy compositions and uses thereof” (CERO THERPEUTICS HOLDINGS, INC., priority 2018, dated 2025)

B1: CER110: Chimeric engulfment receptor: Tim4 binding, Tim4 transmembrane, TRAF6 and DAP12 signaling; SEQ ID NO: 145 (protein)
chain: MSKGLLLLWLVTELWWLYLTPAASEDTIIGFLGQPVTLPCHYLSWSQSRNSMCWGKGSCPNSKCNAELLRTDGTRIISRKSTKYTLLGKVQFGEVSLTISNTNRGDSGVYCCRIEVPGWFNDVKKNVRLELRRATTTKKPTTTTRPTTTPYVTTTTPELLPTTVMTTSVLPTTTPPQTLATTAFSTAVTTCPSTTPGSFSQETTKGSAFTTESETLPASNHSQRSMMTISTDIAVLRPTGSNPGILPSTSQLTTQKTTLTTSESLQKTTKSHQINSRQTILIIACCVGFVLMVLLFLAFLMSLLNCENSCGSSQSESDCCVAMASSCSAVTKDDSVGGTASTGNLSSSFMEEIQGYDVEFDPPLESKYECPICLMALREAVQTPCGHRFCKACIIKSIRDAGHKCPVDNEILLENQLFPDNFAKREILSLMVKCPNEGCLHKMELRHLEDHQAHCEFALMDCPQCQRPFQKFHINIHILKDCPRRQVSCDNCAASMAFEDKEIHDQNCPLANVICEYCNTILIREQMPNHYDLDCPTAPIPCTFSTFGCHEKMQRNHLARHLQENTQSHMRMLAYFLGRLVPRGRGAAEAATRKQRITETESPYQELQGQRSDVYSDLNTQRPYYK
modifications: CER110, amino acids 1-22 are signal peptide
B2: CER30: Chimeric engulfment receptor: Tim4 binding, Tim4 transmembrane, TRAF2 signaling; SEQ ID NO: 120 (protein)
chain: MSKGLLLLWLVTELWWLYLTPAASEDTIIGFLGQPVTLPCHYLSWSQSRNSMCWGKGSCPNSKCNAELLRTDGTRIISRKSTKYTLLGKVQFGEVSLTISNTNRGDSGVYCCRIEVPGWFNDVKKNVRLELRRATTTKKPTTTTRPTTTPYVTTTTPELLPTTVMTTSVLPTTTPPQTLATTAFSTAVTTCPSTTPGSFSQETTKGSAFTTESETLPASNHSQRSMMTISTDIAVLRPTGSNPGILPSTSQLTTQKTTLTTSESLQKTTKSHQINSRQTILIIACCVGFVLMVLLFLAFLMAAASVTPPGSLELLQPGFSKTLLGTKLEAKYLCSACRNVLRRPFQAQCGHRYCSFCLASILSSGPQNCAACVHEGIYEEGISILESSSAFPDNAARREVESLPAVCPSDGCTWKGTLKEYESCHEGRCPLMLTECPACKGLVRLGEKERHLEHECPERSLSCRHCRAPCCGADVKAHHEVCPKFPLTCDGCGKKKIPREKFQDHVKTCGKCRVPCRFHAIGCLETVEGEKQQEHEVQWLREHLAMLLSSVLEAKPLLGDQSHAGSELLQRCESLEKKTATFENIVCVLNREVERVAMTAEAC
modifications: CER30, amino acids 1-22 are signal peptide
B3: CER29: Chimeric engulfment receptor: Tim4 binding, Tim4 transmembrane, TRAF6 signaling; SEQ ID NO: 99 (protein)
chain: MSKGLLLLWLVTELWWLYLTPAASEDTIIGFLGQPVTLPCHYLSWSQSRNSMCWGKGSCPNSKCNAELLRTDGTRIISRKSTKYTLLGKVQFGEVSLTISNTNRGDSGVYCCRIEVPGWFNDVKKNVRLELRRATTTKKPTTTTRPTTTPYVTTTTPELLPTTVMTTSVLPTTTPPQTLATTAFSTAVTTCPSTTPGSFSQETTKGSAFTTESETLPASNHSQRSMMTISTDIAVLRPTGSNPGILPSTSQLTTQKTTLTTSESLQKTTKSHQINSRQTILIIACCVGFVLMVLLFLAFLMSLLNCENSCGSSQSESDCCVAMASSCSAVTKDDSVGGTASTGNLSSSFMEEIQGYDVEFDPPLESKYECPICLMALREAVQTPCGHRFCKACIIKSIRDAGHKCPVDNEILLENQLFPDNFAKREILSLMVKCPNEGCLHKMELRHLEDHQAHCEFALMDCPQCQRPFQKFHINIHILKDCPRRQVSCDNCAASMAFEDKEIHDQNCPLANVICEYCNTILIREQMPNHYDLDCPTAPIPCTFSTFGCHEKMQRNHLARHLQENTQSHMRMLA
modifications: CER29, amino acids 1-22 are signal peptide

Legend:
SCC152 target cells = experiment: Phagocytosis of SCC152 by CD4+ T cell/CER, fluorescence microscopy with hybrid capture; assay type: cell-based; details: TRAF-domain CERs, 4 hours, 1:1:0.5 (CD8:CD4:target cell); versus CD4+ control + CD8+/E7 TCR
Experimental: (§1) FIG. 28 is a bar graph representing quantification of CD4+ T cell-CER mediated phagocytosis of SCC152 target cells. Results calculated as ((number of phagocytic target events)/(total number of effectors))*100 from 3×3 40× images, 4 hours after initiation of co-culture assay. CD8+ T cells transduced with HPV16 E7 TCR and CD4+ T cells transduced with selected CERs (CER5, CER17, CER19, CER21, CER23, CER26, CER27, CER103b, CER104, CER105, CER106, or CER116) were co-cultured with SCC152 squamous head and neck carcinoma target cells at a 1:1:0.5 ratio for 4 hours and imaged.
as §1, with “29” for “28”, “(median area ratio” for “((number”, “of” for “of phagocytic”, “events in effector cells*% phagocytosis)” for “events)/(total number of effectors))*100”
(§2) FIG. 55 is a bar graph representing quantification of CD4+ T cell-CER mediated phagocytosis of SCC152 target cells. Percent phagocytosis was calculated as ((number of phagocytic target events)/(total number of effector cells))*100. These numbers were calculated from 3×3 images captured by Keyence BZ-X710 fluorescence microscope at 40× resolution, 4 hours after initiation of co-culture assay. CD8+ T cells transduced with HPV16 E7 TCR and CD4+ T cells transduced with a selected CER (CER29, CER30, CER110, CER112, CER113, CER114, CER116, or CER117) were co-cultured with SCC152 target cells at a 1:1:0.5 ratio (CD8:CD4:target cell) for 4 hours and imaged.
as §2, with “56” for “55”, “Adjusted phagocytic index” for “Percent phagocytosis”, “(median area ratio” for “((number”, “of” for “of phagocytic”, “events in” for “events)/(total number of”, “cells*% phagocytosis).” for “cells))*100.”
Phagocytic activity of CD4+ T cell/CER+CD8+ T cell/HPV16 E7 TCR combinations co-cultured with SCC152 cells was visualized and quantified using KEYENCE BZ-X710 fluorescence microscope, […] and hybrid capture software.

SCC152 cells = experiment: Elimination of GFP-expressing SCC152 target cells over time (quantification and time lapse imaging); assay type: cell-based
Experimental: Target SCC152 cells were co-cultured with CD8+ T cells transduced with HPV E7 TCR+CD4+ T cells transduced with a selected CER, or controls (CD8+ T cell transduced with HPV E7 TCR+CD4+ transduced control) at a 1:1:1 ratio. The number of target cells were quantified using imaging software. 0 hours, 24 hours, and 48 hours are shown from left to right.
(§3) FIG. 21 is time lapse imaging from 96-well co-culture experiments comprising CD8+ T cells transduced with HPV16 E7 TCR+CD4+ T cells transduced with CER5, CER17 or CER19 incubated with SCC152 target cells at a 1:1:1 ratio. SCC152 HPV+ target cells were quantified using automated cell counting software.
as §3, with “22” for “21”, “CER21, CER23” for “CER5, CER17”, “CER26” for “CER19”
as §3, with “23” for “21”, “CER103b, CER104” for “CER5, CER17”, “CER105” for “CER19”
as §3, with “24” for “21”, “CER106, CER116” for “CER5, CER17”, “CER27” for “CER19”
FIG. 57 is a bar graph showing quantification of loss of SCC152 HPV16+ target cells over time during co-culture assays. SCC152 cells were transduced with green fluorescent protein (GFP) and co-cultured with CD8+ T cells transduced with HPV16 E7 TCR and CD4+ T cells transduced with a selected CER (CER29, CER30, CER110, CER112, CER113, CER114, CER116, or CER117) or a CD4+ T cell control at a 1:1:1 ratio (CD8:CD4:target cell). The number of target cells was quantified at various time points during co-culture (0 hrs, 12 hrs, 24 hrs, and 36 hrs) using fluorescence microscopy and imaging software.
(§4) FIG. 58 are fluorescence micrograph images of the co-culture assay described in FIG. 57, showing clearance of the SCC152 cells (pink) as co-culture with CD8+ T cells transduced with HPV16 E7 TCR and CD4+ T cells transduced with a selected CER (columns from left to right: control, CER29, CER30, CER110, or CER112) progresses (rows from top to bottom: 0 hrs, 12 hrs, 24 hrs, and 36 hrs).
as §4, with “59” for “58”, “CER113, CER114, CER116,” for “CER29, CER30, CER110,”, “CER117)” for “CER112)”
(§5) Elimination of target SCC152 cells was also detected by quantifying green fluorescent protein expression by SCC152 cells over time (0 hr, 24 hr, 48 hr) during co-incubation with CD8+ T cells transduced with HPV16 E7 specific TCR+ CD4 T cells transduced with selected CER (see, FIG. 20).
as §5, with “hr, 12 hr,” for “hr,”, “hr, 36” for “hr, 48”, “TCR+ CD4+” for “TCR+ CD4”, “CER (CER29, CER30, CER110, CER112, CER113, CER114, CER116, or CER117)” for “CER”, “FIG. 57).” for “FIG. 20).”

Row | Molecule | engulfment of SCC152 target cells (percent phagocytosis, adjusted phagocytic index) (SCC152 target cells) | elimination of SCC152 cells, time lapse imaging (SCC152 cells; 0 to 36 hrs, compared to the control) | elimination of SCC152 cells (GFP quantification) (SCC152 cells; by 36 hrs, 1:1:1 ratio (CD8:CD4:target cell), compared to control)
1 | B1 | enhanced engulfment |  | 
2 | B2 | enhanced engulfment | enhanced elimination of SCC152 cells | nearly complete elimination
3 | B3 | enhanced engulfment |  | 
